The record followed here is patent publication US20150010574A1.

Among the targets are human IGF-2 (human) (UniProt P01344); human IGF-1 (human) (UniProt P05019); human IGF-1R (human) (UniProt P08069).
Test in all cases: cell-based or functional assay

Some results are limits rather than exact numbers.

Sequence of human IGF-2 (human) (P01344 25-91 limits assumed): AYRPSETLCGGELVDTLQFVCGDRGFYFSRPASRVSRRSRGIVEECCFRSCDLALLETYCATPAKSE
Sequence of human IGF-1R (human) (P08069 31-1367): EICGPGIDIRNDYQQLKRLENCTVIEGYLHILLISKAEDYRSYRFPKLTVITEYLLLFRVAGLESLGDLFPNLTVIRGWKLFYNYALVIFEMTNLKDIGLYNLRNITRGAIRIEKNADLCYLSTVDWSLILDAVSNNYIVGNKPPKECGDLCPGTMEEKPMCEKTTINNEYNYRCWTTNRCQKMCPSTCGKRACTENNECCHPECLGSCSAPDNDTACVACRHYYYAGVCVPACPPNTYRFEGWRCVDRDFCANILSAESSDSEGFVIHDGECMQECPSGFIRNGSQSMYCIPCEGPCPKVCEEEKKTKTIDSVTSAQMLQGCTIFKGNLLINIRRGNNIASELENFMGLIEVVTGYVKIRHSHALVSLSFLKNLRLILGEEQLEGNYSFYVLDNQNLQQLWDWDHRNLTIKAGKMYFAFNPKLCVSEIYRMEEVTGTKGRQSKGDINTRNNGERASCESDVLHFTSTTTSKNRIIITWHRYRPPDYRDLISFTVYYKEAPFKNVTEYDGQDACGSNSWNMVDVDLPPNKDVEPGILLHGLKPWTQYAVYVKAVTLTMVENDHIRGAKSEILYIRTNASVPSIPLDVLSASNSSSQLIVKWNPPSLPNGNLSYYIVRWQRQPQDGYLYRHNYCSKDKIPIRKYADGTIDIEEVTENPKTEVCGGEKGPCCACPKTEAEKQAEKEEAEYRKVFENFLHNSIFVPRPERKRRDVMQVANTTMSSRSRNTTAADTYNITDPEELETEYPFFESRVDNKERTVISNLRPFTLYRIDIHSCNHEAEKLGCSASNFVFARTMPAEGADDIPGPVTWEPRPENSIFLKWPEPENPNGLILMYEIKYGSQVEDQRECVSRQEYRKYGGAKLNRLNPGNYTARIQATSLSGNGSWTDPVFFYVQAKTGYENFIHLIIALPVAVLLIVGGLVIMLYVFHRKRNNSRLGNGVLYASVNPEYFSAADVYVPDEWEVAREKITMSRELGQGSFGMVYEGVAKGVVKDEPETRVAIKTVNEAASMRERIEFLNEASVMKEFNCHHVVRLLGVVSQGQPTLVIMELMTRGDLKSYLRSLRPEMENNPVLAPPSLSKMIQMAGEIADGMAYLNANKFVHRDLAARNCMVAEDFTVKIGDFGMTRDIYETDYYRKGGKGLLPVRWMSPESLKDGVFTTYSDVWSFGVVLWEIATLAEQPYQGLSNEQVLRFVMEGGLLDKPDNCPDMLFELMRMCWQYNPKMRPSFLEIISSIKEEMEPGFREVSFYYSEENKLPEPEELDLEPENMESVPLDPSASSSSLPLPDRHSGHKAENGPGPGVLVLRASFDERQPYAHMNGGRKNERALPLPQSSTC
Sequence of human IGF-1 (human) (P05019 49-118): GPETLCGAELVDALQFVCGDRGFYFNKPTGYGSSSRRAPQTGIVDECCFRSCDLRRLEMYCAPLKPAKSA

Take Control IgG (antibody): in the test with human IGF-2 (human), the % Remaining Phosphorylation at 15 µg/mL (100 nM) Inhibitor; IGF-2 (100 ng/mL) induced IGF-1R phosphorylation worked out at 108%; the % Remaining Phosphorylation at 15 µg/mL (100 nM) Inhibitor; IGF-2 (100 ng/mL) induced IR-A phosphorylation was found to be 109%; the IC50 of IGF-2 (100 ng/mL) induced IGF-1R phosphorylation, cell based ELISA was greater than 15 mg/L; the IC50 of IGF-2 (100 ng/mL) induced IR-A phosphorylation, cell based ELISA is greater than 15 mg/L. Further, the % Remaining Phosphorylation at 15 µg/mL (100 nM) Inhibitor; IGF-1 (20 ng/mL) induced IGF-1R phosphorylation with human IGF-1 (human) was determined as 108%.

In the case of “IGF-1R antibody αIR-3 (Calbiochem, No. GR11L)”, in the test with human IGF-1R (human), the % Remaining Phosphorylation at 15 µg/mL (100 nM) Inhibitor; IGF-1 (20 ng/mL) induced IGF-1R phosphorylation was found to be 35%; the % Remaining Phosphorylation at 15 µg/mL (100 nM) Inhibitor; IGF-2 (100 ng/mL) induced IGF-1R phosphorylation amounted to 76%; the % Remaining Phosphorylation at 15 µg/mL (100 nM) Inhibitor; human serum (20%) induced IGF-1R phosphorylation came to 120%; the IC50 of IGF-1 (20 ng/mL) induced IGF-1R phosphorylation, cell based ELISA amounted to 1.16 mg/L. Moreover, in the test with human IGF-1R (human), the IC50 of IGF-2 (100 ng/mL) induced IGF-1R phosphorylation, cell based ELISA was greater than 15 mg/L and the IC50 of human serum (20%) induced IGF-1R phosphorylation, cell based ELISA is greater than 15 mg/L.
